According to publication PMC3698035, “Nectin-2 is a potential target for antibody therapy of breast and ovarian cancers” (Molecular Cancer, 2013):

Molecular target: the molecule itself
Assay: ELISA; ELISA-based time-resolved fluorescence spectroscopy assay; unlabeled Nectin-2-ED-hFc immobilised on a Delfia Clear Strip Plate, Eu-labeled Nectin-2-ED-hFc at 3.2 ug/mL added together with anti-Nectin-2 mAb at 30 ug/mL or a human IgG control, 1.5 h at room temperature

B1: Nectin-2-ED-hFc (Fc fusion, human, UniProt Q92692 32-361, looked up)
chain: QDVRVQVLPEVRGQLGGTVELPCHLLPPVPGLYISLVTWQRPDAPANHQNVAAFHPKMGPSFPSPKPGSERLSFVSAKQSTGQDTEAELQDATLALHGLTVEDEGNYTCEFATFPKGSVRGMTWLRVIAKPKNQAEAQKVTFSQDPTTVALCISKEGRPPARISWLSSLDWEAKETQVSGTLAGTVTVTSRFTLVPSGRADGVTVTCKVEHESFEEPALIPVTLSVRYPPEVSISGYDDNWYLGRTDATLSCDVRSNPEPTGYDWSTTSGTFPTSAVAQGSQLVIHAVDSLFNTTFVCTVTNAVGMGRAEQVIFVRETPNTAGAGATGGI
modifications: europium N1 ITC chelate (only on the Eu-labeled copy added in solution in the Nectin-2-Nectin-2 assay)
notes: signal peptide in the construct; Nectin-2, cloned from cDNA of the A549 human lung cancer cell line, extracellular domain a.a; 1-361; Plasmid pcDNA3.1-Nectin-2-ED-hFc; In the Nectin-2-Nectin-2 assay one copy was unlabeled on the plate and the other Eu-labeled in solution; also called Nectin-2 extracellular domain (a.a. 1-361) fused to the human IgG1 Fc region; source: FreeStyle 293 F cells, …
- binding result: binds
